Laboratory results reported in patent US20150231203A1 (UTI LIMITED PARTNERSHIP, published 2015).
No end group written: not given here.

T1: recombinant human USP5 long isoform (human, UniProt P45974 1-858)
T1 construct: Purified recombinant protein bought from EnzoLifeSciences; also called hUSP5 long; USP5 long isoform (858 amino acids)
T1 sequence: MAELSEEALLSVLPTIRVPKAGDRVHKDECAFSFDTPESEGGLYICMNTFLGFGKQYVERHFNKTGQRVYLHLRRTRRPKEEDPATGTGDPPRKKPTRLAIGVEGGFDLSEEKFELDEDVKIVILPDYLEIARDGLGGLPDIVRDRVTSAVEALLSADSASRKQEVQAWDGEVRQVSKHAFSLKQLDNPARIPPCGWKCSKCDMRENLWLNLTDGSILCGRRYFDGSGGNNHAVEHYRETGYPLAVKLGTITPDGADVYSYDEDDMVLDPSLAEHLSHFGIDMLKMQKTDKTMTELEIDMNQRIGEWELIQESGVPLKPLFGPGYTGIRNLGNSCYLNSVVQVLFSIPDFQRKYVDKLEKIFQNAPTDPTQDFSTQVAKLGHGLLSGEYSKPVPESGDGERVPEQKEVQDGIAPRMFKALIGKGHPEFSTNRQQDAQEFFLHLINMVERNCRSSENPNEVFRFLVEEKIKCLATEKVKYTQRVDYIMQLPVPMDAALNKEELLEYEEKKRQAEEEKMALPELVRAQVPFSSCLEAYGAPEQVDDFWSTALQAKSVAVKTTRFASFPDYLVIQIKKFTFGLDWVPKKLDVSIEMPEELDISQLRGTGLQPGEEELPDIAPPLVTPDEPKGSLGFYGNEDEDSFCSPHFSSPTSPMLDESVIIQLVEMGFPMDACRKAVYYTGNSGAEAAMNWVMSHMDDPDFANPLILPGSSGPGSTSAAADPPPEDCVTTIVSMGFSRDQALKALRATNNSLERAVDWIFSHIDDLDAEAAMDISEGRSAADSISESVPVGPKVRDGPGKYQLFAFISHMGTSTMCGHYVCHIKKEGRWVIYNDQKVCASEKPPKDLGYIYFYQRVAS

T2: recombinant human USP5 short isoform (human, UniProt P45974-2 1-835)
T2 construct: Purified recombinant protein bought from EnzoLifeSciences; also called hUSP5 short; USP5 short isoform (835 amino acids)
T2 sequence (looked up): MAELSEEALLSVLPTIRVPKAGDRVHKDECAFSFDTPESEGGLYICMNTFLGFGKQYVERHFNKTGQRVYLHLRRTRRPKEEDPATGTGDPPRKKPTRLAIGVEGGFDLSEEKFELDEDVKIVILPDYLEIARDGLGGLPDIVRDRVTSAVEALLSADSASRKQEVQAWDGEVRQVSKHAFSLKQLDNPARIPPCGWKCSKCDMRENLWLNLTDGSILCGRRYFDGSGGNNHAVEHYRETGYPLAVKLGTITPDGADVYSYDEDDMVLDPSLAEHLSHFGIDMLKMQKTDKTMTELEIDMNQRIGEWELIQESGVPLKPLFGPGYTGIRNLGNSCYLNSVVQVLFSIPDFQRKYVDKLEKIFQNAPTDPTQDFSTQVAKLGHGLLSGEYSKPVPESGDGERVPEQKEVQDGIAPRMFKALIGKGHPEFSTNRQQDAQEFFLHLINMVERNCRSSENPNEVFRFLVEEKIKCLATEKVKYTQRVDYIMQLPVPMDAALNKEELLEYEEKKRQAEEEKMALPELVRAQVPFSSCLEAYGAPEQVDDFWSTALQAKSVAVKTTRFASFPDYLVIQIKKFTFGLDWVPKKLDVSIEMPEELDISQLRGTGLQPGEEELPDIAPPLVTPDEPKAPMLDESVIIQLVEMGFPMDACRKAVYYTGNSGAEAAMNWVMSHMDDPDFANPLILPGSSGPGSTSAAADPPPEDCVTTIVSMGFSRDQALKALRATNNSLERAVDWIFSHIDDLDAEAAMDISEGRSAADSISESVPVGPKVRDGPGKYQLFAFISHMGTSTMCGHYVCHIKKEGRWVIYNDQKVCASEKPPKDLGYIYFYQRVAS

B1: USP5 (mouse, endogenous, from brain, DRG or dorsal horn lysate) (enzyme, UniProt P56399 2-858, looked up)
chain: AELSEEALLSVLPTIRVPKAGDRVHKDECAFSFDTPESEGGLYICMNTFLGFGKQYVERHFNKTGQRVYLHLRRTRRPKEEDTSAGTGDPPRKKPTRLAIGVEGGFDLTEDKFEFDEDVKIVILPDYLEIARDGLGGLPDIVRDRVTSAVEALLSADSASRKQEVQAWDGEVRQVSKHAFNLKQLDNPARIPPCGWKCSKCDMRENLWLNLTDGSILCGRRYFDGSGGNNHAVEHYRETGYPLAVKLGTITPDGADVYSYDEDDMVLDPSLAEHLSHFGIDMLKMQKTDKTMTELEIDMNQRIGEWELIQESGVPLKPLFGPGYTGIRNLGNSCYLNSVVQVLFSIPDFQRKYVDKLEKIFQNAPTDPTQDFSTQVAKLGHGLLSGEYSKPALESGDGEQVPEQKEVQDGIAPRMFKALIGKGHPEFSTNRQQDAQEFFLHLINMVERNCRSSENPNEVFRFLVEEKIKCLATEKVKYTQRVDYIMQLPVPMDAALNKEELLEYEEKKRQAEEEKVPLPELVRAQVPFSSCLEAYGAPEQVDDFWSTALQAKSVAVKTTRFASFPDYLVIQIKKFTFGLDWVPKKLDVSIEMPEELDISQLRGTGLQPGEEELPDIAPPLVTPDEPKGSLGFYGNEDEDSFCSPHFSSPTSPMLDESVIIQLVEMGFPMDACRKAVYYTGNSGAEAAMNWVMSHMDDPDFANPLILPGSSGPGSTSAAADPPPEDCVTTIVSMGFSRDQALKALRATNNSLERAVDWIFSHIDDLDAEAAMDISEGRSAAESISESVPVGPKVRDGPGKYQLFAFISHMGTSTMCGHYVCHIKKEGRWVIYNDQKVCASEKPPKDLGYIYFYQRVVS

Key:
[1] = biological target: Cav3.2 channel (mouse, endogenous full-length channel from DRG, brain or dorsal horn) (mouse, UniProt O88427 1-2365, limits assumed); assay: cell-based or functional assay
[2] = biological target: T3, WWP1 (mouse, endogenous, from DRG lysate) (mouse, UniProt Q8BZZ3 1-918); assay: affinity precipitation from mouse DRG lysate with biotinylated peptide, western blot for WWP1
T3 construct: also called HECT E3 ligase WWP1

[3] = biological target: B1; assay: affinity precipitation from mouse brain lysate with biotinylated Tat peptide (25 µg), western blot for USP5
[4] = biological target: B1; assay: in vitro competition by affinity precipitation from mouse brain lysate; competitor 50 µg against biotin-Tat peptide 25 µg
[5] = biological target: B1; assay: affinity precipitation from mouse brain lysate with biotinylated peptide, western blot for USP5
[6] = biological target: T1, recombinant human USP5 long isoform; assay: in vitro binding assay of purified recombinant USP5 to biotinylated peptide, western blot
[7] = biological target: T2, recombinant human USP5 short isoform; assay: as above

Sequence of Cav3.2 channel (mouse, endogenous full-length channel from DRG, brain or dorsal horn) (O88427 whole entry): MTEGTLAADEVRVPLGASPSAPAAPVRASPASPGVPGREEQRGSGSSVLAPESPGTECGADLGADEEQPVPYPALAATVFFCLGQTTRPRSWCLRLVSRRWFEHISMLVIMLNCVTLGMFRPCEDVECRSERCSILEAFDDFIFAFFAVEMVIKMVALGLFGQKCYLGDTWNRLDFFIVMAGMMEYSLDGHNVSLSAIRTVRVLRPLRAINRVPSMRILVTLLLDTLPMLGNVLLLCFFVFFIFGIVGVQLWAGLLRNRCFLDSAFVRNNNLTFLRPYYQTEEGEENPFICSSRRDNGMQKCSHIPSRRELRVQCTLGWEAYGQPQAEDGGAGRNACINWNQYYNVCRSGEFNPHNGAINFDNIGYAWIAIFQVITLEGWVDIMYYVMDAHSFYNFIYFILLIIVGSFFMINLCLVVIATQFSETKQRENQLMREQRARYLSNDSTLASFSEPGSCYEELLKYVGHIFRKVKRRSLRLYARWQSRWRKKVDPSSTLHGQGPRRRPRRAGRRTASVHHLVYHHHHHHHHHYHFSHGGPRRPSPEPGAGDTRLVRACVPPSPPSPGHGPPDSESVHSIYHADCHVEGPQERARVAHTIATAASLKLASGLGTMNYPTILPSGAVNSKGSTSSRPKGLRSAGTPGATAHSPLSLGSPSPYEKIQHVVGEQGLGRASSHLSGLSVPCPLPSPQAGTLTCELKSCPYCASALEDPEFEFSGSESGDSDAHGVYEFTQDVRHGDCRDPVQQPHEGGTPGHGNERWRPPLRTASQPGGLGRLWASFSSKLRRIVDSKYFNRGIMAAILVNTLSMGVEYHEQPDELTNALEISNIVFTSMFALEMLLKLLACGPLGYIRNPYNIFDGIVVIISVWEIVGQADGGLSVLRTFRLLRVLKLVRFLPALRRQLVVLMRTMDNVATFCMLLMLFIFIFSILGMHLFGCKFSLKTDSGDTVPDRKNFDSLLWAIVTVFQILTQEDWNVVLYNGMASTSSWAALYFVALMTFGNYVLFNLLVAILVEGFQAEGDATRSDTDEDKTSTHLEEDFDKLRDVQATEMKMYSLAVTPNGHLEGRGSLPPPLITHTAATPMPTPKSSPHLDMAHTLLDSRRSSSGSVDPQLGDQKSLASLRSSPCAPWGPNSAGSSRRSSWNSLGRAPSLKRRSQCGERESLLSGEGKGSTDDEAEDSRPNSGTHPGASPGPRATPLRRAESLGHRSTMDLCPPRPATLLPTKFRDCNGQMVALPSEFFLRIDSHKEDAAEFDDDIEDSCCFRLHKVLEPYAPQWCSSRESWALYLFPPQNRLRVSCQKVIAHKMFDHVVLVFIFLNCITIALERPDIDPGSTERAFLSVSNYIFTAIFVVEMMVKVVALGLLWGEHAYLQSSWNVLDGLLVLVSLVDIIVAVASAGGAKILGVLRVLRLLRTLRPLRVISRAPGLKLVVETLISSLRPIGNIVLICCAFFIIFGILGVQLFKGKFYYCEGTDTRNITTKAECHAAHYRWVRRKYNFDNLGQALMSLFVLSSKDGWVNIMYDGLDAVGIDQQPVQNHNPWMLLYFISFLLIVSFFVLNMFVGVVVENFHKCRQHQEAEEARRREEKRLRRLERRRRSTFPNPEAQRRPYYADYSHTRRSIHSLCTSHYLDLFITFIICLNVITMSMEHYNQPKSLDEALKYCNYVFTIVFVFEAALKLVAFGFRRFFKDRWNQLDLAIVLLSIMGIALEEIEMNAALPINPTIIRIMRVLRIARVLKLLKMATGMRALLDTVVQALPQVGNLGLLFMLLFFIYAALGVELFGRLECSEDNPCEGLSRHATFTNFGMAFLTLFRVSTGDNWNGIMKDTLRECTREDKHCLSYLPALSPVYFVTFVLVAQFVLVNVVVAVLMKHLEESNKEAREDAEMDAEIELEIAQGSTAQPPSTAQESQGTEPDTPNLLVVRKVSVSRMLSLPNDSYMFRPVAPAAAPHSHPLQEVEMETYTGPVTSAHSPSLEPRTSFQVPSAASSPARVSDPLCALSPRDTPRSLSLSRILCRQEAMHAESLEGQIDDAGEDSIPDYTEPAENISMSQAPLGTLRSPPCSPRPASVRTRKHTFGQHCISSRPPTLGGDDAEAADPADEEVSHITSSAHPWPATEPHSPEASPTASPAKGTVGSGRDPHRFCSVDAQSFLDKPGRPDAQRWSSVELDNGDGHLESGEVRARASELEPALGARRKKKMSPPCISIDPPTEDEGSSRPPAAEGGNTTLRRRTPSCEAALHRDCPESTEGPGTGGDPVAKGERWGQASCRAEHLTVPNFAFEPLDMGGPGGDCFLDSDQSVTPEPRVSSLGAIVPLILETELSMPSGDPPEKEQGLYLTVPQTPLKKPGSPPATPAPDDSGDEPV

Binder | binding result [2] | binding result [5] | binding result [6] | binding result [7] | further results
B1 |  |  |  |  | channel ubiquitination of Cav3.2 immunoprecipitates from CAD cells transfected with USP5-shRNA against USP15-shRNA [1]: ~5 fold
EARRREEKRLRRLERRRR (peptide, UniProt O95180-2 1569-1586, looked up, also: biotin, position not given here, range 1569-1586; Synthetic peptide lacking the PY motif; also called hCav3.21569-1586; 18 amino acid short peptide lacking the PY motif) [human biotin-Cav3.2 1569-1586 short III-IV linker peptide] | binds |  |  |  | 
YGRKKRRQRRREARRREEKRLRRLERRRRKAQ (not fully specified (N-terminus); also: biotin, position not given here, also called biotinylated Cav3.21569-1589 III-IV linker peptide; Tat-Cav3.21569-1589 III-IV linker peptide) [biotin-Tat-3.2 III-IV 1569-1589 linker peptide] |  |  |  |  | binding result [3]: binds
YGRKKRRQRRREARRREEKRLRRLERRRRKAQ (also called Tat-3.2-III-IV1569-1589 linker; Tat-3.2-III-IV) [Tat-Cav3.2 1569-1589 III-IV linker peptide (non-biotinylated)] |  |  |  |  | binding result [4]: binds
ENFHKCRQHQEAEEARRREEKRLRRLERRRRKAQRRPYYADYSPTRR-biotin (peptide, UniProt O95180-2 1556-1602, looked up, not fully specified, Synthetic peptide containing the PY motif; also called long III-IV linker) [human biotin-Cav3.2 1556-1602 III-IV linker peptide] | binds | binds | binds | binds | 
SNKEAREDAELDAEIELEMAQGPGS-biotin (peptide, UniProt O95180-2 1860-1884, looked up, not fully specified, Control peptide; also called hCav3.21860-1884 (CT); Cav3.2 C-terminus peptide) [human biotin-Cav3.2 1860-1884 C-terminus peptide] |  | no binding | no binding | no binding | 
